# Experiments:
# Test in all cases: cell-based or functional assay
# [1] = target: SARS-CoV-2 spike protein, Delta variant (B.1.617.2) (SARS-CoV-2)
# [2] = target: SARS-CoV-2 spike protein, Delta variant (AY.1) (SARS-CoV-2)
# [3] = target: SARS-CoV-2 spike protein, Gamma variant (P.1) (SARS-CoV-2)
# [4] = target: SARS-CoV-2 spike (S) protein, Omicron variant BA.1 (SARS-CoV-2) (UniProt P0DTC2)
# [5] = target: SARS-CoV-2 spike protein, Beta variant 1 (B.1.351 v1) (SARS-CoV-2)
# [6] = target: SARS-CoV-2 spike protein, Alpha variant (B.1.1.7) (SARS-CoV-2)
# [7] = target: SARS-CoV-2 spike (S) protein, Omicron sublineage BF.7 (R346T, F486V) (SARS-CoV-2) (UniProt P0DTC2)
# [8] = target: SARS-CoV-2 Omicron BA.4.6 spike protein (R346T, F486V) (SARS-CoV-2) (UniProt P0DTC2)
# [9] = target: SARS-CoV-2 spike (S) protein, Omicron sublineage BA.1.1 (R346K) (SARS-CoV-2) (UniProt P0DTC2)
# [10] = target: SARS-CoV-2 spike (S) protein, Omicron sublineage BA.4.7 (R346S, F486V) (SARS-CoV-2) (UniProt P0DTC2)
# [11] = target: SARS-CoV-2 spike (S) protein, Omicron sublineage BQ 1.1 (R346T, K444T, F486V) (SARS-CoV-2) (UniProt P0DTC2)
# [12] = target: SARS-CoV-2 spike (S) protein, Omicron sublineage BA.4.6 (R346T, F486V) (SARS-CoV-2) (UniProt P0DTC2)
# [13] = target: SARS-CoV-2 spike protein, Omicron variant (B.1.1.529) (SARS-CoV-2) (UniProt P0DTC2)
# [14] = target: SARS-CoV-2 spike protein, Omicron sublineage BA.4.7 (R346S, F486V) (SARS-CoV-2) (UniProt P0DTC2)
# [15] = target: SARS-CoV-2 spike protein, Omicron sublineage BA.4.6 (R346T, F486V) (SARS-CoV-2) (UniProt P0DTC2)
# [16] = target: SARS-CoV-2 spike protein, Omicron sublineage BF.7 (R346T, F486V) (SARS-CoV-2) (UniProt P0DTC2)
# [17] = target: SARS-CoV-2 spike protein, Omicron sublineage BQ.1.1 (R346T, K444T, F486V) (SARS-CoV-2) (UniProt P0DTC2)
# [18] = target: SARS-CoV-2 spike protein, Omicron sublineage BA.1.1 (R346K) (SARS-CoV-2) (UniProt P0DTC2)
# [19] = target: SARS-CoV-2 spike (S) protein, Omicron variant BA.2.12.1 (SARS-CoV-2) (UniProt P0DTC2)
# [20] = target: SARS-CoV-2 spike (S) protein, Omicron variant BA.2 (SARS-CoV-2) (UniProt P0DTC2)
# [21] = target: SARS-CoV-2 spike protein, Beta variant 1 (B.1.351.v1) (SARS-CoV-2)
# [22] = target: SARS-CoV-2 spike (S) protein, Omicron variant BA.4/5 (SARS-CoV-2) (UniProt P0DTC2)
# [23] = target: SARS-CoV-2 spike (S) protein, Mu variant (B.1.621) (SARS-CoV-2) (UniProt P0DTC2)
# [24] = target: SARS-CoV-2 spike (S) protein, C.1.2 variant (SARS-CoV-2) (UniProt P0DTC2)
# Chain of MX183 (A19-61 × B1-182) (bispecific antibody) (chain): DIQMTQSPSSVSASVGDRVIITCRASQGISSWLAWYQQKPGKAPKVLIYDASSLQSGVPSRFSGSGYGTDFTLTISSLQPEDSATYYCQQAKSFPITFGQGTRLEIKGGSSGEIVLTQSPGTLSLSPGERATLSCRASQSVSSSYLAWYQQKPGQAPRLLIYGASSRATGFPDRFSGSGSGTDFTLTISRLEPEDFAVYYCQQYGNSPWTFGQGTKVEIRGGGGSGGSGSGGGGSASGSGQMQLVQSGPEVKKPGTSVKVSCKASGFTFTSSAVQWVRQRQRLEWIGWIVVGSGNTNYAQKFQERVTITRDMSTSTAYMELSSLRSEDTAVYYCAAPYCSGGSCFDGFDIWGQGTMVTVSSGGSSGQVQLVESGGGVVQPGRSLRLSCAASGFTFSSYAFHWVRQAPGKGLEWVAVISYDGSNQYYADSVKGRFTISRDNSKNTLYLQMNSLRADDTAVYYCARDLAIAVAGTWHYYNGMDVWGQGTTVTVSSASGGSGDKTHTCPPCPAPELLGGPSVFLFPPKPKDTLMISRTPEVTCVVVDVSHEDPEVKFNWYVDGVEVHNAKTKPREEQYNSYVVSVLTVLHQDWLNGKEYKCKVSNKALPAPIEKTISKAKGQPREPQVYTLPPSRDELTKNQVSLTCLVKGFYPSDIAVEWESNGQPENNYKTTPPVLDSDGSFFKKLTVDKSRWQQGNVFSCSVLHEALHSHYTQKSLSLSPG
# Chain of MX413 (A19-61 x A23-58H/B1-182L) (bispecific antibody) (chain): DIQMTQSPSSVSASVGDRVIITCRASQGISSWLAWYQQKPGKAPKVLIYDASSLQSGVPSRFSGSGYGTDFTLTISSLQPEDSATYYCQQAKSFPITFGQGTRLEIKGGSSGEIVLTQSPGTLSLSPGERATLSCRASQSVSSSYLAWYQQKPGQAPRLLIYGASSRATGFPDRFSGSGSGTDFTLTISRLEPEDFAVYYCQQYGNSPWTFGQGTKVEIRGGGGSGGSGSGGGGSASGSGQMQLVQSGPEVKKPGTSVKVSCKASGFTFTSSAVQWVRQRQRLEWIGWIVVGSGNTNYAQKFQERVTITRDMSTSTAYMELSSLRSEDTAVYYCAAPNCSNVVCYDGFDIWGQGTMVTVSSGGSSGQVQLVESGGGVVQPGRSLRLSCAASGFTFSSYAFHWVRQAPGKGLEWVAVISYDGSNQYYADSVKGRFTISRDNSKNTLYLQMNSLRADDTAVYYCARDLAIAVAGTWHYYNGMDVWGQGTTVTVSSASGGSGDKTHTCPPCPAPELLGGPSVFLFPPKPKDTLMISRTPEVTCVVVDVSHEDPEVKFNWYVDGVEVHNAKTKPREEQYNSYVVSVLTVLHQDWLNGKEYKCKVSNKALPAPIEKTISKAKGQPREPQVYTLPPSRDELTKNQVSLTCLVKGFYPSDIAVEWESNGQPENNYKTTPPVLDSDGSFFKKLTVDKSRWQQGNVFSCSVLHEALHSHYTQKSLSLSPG
# Chain of MX492 (A19-46 x A23-58H/B1-182L) (bispecific antibody) (chain): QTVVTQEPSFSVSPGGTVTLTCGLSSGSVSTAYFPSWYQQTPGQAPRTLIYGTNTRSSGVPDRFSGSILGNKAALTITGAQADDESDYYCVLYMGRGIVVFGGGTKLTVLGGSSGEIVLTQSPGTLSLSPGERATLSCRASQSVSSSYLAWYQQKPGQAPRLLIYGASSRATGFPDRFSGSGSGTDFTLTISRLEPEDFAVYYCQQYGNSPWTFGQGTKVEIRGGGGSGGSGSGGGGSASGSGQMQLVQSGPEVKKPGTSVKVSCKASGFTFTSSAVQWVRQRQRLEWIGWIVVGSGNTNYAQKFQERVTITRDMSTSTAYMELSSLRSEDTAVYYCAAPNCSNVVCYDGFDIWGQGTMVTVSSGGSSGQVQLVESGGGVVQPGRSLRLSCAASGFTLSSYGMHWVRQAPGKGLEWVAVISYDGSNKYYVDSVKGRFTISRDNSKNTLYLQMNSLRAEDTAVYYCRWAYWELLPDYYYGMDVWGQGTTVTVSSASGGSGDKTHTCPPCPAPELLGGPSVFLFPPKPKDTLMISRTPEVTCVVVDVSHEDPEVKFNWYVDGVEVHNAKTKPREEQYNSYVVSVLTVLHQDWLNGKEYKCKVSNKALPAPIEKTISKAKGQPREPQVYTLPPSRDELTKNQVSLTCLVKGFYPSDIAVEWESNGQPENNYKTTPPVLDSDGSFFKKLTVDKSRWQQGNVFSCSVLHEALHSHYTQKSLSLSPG
Substance,"IC50, pseudovirus neutralization [1]","IC80, pseudovirus neutralization [1]","IC50, pseudovirus neutralization [3]","IC80, pseudovirus neutralization [3]","IC50, pseudovirus neutralization [4]","IC80, pseudovirus neutralization [4]","IC50, pseudovirus neutralization [6]","IC80, pseudovirus neutralization [6]","IC50, pseudovirus neutralization [7]","IC80, pseudovirus neutralization [7]","IC50, pseudovirus neutralization [8]","IC80, pseudovirus neutralization [8]","IC50, pseudovirus neutralization [9]","IC80, pseudovirus neutralization [9]","IC50, pseudovirus neutralization [10]","IC80, pseudovirus neutralization [10]","IC50, pseudovirus neutralization [11]","IC80, pseudovirus neutralization [11]","IC50, pseudovirus neutralization [12]","IC80, pseudovirus neutralization [12]",further results
MX183 (A19-61 × B1-182) (bispecific antibody),0.23 nM,0.948 nM,0.43 nM,2.27 nM,> 66.7 nM,> 66.7 nM,0.803 nM,5.66 nM,,,,,,,,,,,,,"IC50, pseudovirus neutralization [2]: 0.542 nM; IC80, pseudovirus neutralization [2]: 1.04 nM; IC50, pseudovirus neutralization [5]: 1.02 nM; IC80, pseudovirus neutralization [5]: 1.65 nM"
MX492 (A19-46 x A23-58H/B1-182L) (bispecific antibody),,,,,,,,,> 10000 nM,> 10000 nM,> 10000 nM,> 10000 nM,8.77 nM,68 nM,13.3 nM,154 nM,> 10000 nM,> 10000 nM,21.4 nM,24.5 nM,
MX413 (A19-61 x A23-58H/B1-182L) (bispecific antibody),,,,,,,,,28.1 nM,177 nM,10 nM,25 nM,2.24 nM,10.5 nM,77.9 nM,126 nM,> 10000 nM,> 10000 nM,56 nM,155 nM,
S2E12 (antibody),,,,,,,,,,,,,,,,,,,,,"IC50, pseudovirus neutralization [13]: 8.8 nM; IC80, pseudovirus neutralization [13]: 38.5 nM"
MX500 (A19-46 × A23-58H/B1-182L/A23-58H/B1-182L × A19-61),,,,,0.0639 nM,0.204 nM,,,,,,,,,,,,,,,"IC50, pseudovirus neutralization [14]: > 10000 nM; IC80, pseudovirus neutralization [14]: > 10000 nM; IC50, pseudovirus neutralization [15]: > 10000 nM; IC80, pseudovirus neutralization [15]: > 10000 nM; IC50, pseudovirus neutralization [16]: > 10000 nM; IC80, pseudovirus neutralization [16]: > 10000 nM; IC50, pseudovirus neutralization [17]: > 10000 nM; IC80, pseudovirus neutralization [17]: > 10000 nM; IC50, pseudovirus neutralization [18]: 45.1 nM; IC80, pseudovirus neutralization [18]: 83.4 nM; IC50, pseudovirus neutralization [19]: 0.0655 nM; IC80, pseudovirus neutralization [19]: 0.145 nM; IC50, pseudovirus neutralization [20]: 0.0151 nM; IC80, pseudovirus neutralization [20]: 0.0503 nM"
A23_58.1 (antibody),0.0133 nM,0.0358 nM,0.0097 nM,0.0437 nM,,,0.0329 nM,0.104 nM,,,,,,,,,,,,,"IC50, pseudovirus neutralization [21]: 0.123 nM; IC80, pseudovirus neutralization [21]: 0.339 nM; pseudovirus neutralization IC50 (nM (inferred)) [22]: > 66.7; pseudovirus neutralization IC80 (nM (inferred)) [22]: > 66.7; pseudovirus neutralization IC50 (nM (inferred)) [19]: 0.647; pseudovirus neutralization IC80 (nM (inferred)) [19]: 4.96; pseudovirus neutralization IC50 (nM (inferred)) [23]: 0.124; pseudovirus neutralization IC80 (nM (inferred)) [23]: 0.26; pseudovirus neutralization IC50 (nM (inferred)) [4]: 0.853; pseudovirus neutralization IC80 (nM (inferred)) [4]: 4.24; pseudovirus neutralization IC50 (nM (inferred)) [24]: 0.0287; pseudovirus neutralization IC80 (nM (inferred)) [24]: 0.0656; pseudovirus neutralization IC50 (nM (inferred)) [20]: 1.72; pseudovirus neutralization IC80 (nM (inferred)) [20]: 6.12"
